In PMC7948472, “Structural basis for antigen recognition by methylated lysine–specific antibodies” (The Journal of Biological Chemistry, 2020):

T1: MAP3K2 peptide, NPIFEKFGKGGTYP (Homo sapiens)
T1 construct: MAP3K2 peptide surrounding Lys260, not methylated; also called non-methylated peptide; nonmethylated peptide; source: synthetic peptide (SCRUM Inc)
T1 chain: NPIFEKFGKGGTYP

B1: Fab F9 (Fab, V domains shown)
VH: QSVEESGGRLVTPGTPLTLTCTVSGFSLNSNAISWVRQAPGEGLEWVGAIYTHGSTVYANWAKGRFTISKTSTTIELKMTSLTTEDTATYFCARHGYTYSFNLWGPGTLVTVSS
VL: AQGLTQTPSPVSAALGGTVTINCQSSQSVYGNNRLAWYQQKPGQPPKRLIYQASTLDSGVPSRFSGSGSGTQFTLTISGVQCDDAATYYCQGGYSSGDAWAFGGGTEVVVK
notes: heavy chain of rabbit Fab clone F9; they are in PDB 6LDV chain H; light chain of rabbit Fab clone F9; they are in PDB 6LDV chain L; Purified on Ni-NTA, so a His tag is surmised; source: Expi293 cells, cotransfected, purified from supernatant (Ni-NTA, SEC)
B2: Fab E6 (Fab, V domains shown)
VH: DQSLEESGGRLVTPGTPLTLTCTVSGFSLNNNAMGWFRQAPGEGLEWIGAIYTDGSTYYASWAKGRFTISKTSTTIDLKMTSLTTEDTATYFCARHGYTYSFNLWGPGTLVTVSS
VL: DPVMTQTPPSVSAAVGGTVTISCQSSQSVYNNDNLAWYQQKPGQPPKRLIYGASTLDSGVPSRFKGSGSGTQFTLTISGVECDDAATYYCQGAYNVDIYPFGGGTEVVVK
notes: heavy chain of rabbit Fab clone E6; they are in PDB 6LDX chain H; light chain of rabbit Fab clone E6; they are in PDB 6LDX chain L; Purified on Ni-NTA, so a His tag is surmised; source: Expi293 cells, cotransfected, purified from supernatant (Ni-NTA, SEC)

Target: T1, MAP3K2 peptide, NPIFEKFGKGGTYP
Assay: SPR; Biacore T200; each Fab immobilised on a CM5 chip by amine coupling; peptides injected at increasing concentrations; running buffer PBS with 0.005% Tween 20; global fitting of the curves, or steady-state analysis where kinetic parameters could not be determined (fast dissociation, low affinity)
Conditions: both partners purified

Row | Binder | Kd [µM] | koff [s⁻¹] | kon [M⁻¹ s⁻¹]
1 | B1 | 4 | 0.33 ± 0.04 | 86000
2 | B2 | 0.35 | 0.18 ± 0.01 | 500000
